Numbered stars: 1 amine (or outer) side, 2 acyl side, 3 side chain; on linkers, the order of the positions; unused ones are H or OH. Square brackets hold non-standard residues; d marks the D form. Side chains are listed from the residue outwards. * marks the point of attachment. TTDS = 4-[3-[2-[2-(3-aminopropoxy)ethoxy]ethoxy]propylamino]-4-oxo-butanoyl; γGlu = O=C(O)[C@H](CCC(=O)[*:2])N[*:1]; Stearoyl = CCCCCCCCCCCCCCCCCC(=O)*; Palmitoyl = CCCCCCCCCCCCCCCC(=O)*; Cit = NC(=O)NCCC[C@H](N)C(=O)O; αMeK = C[C@](N)(CCCCN)C(=O)O; hLys = NCCCCC[C@H](N)C(=O)O; AEEA = NCCOCCOCC(=O)O; Aib = CC(C)(N)C(=O)O
T1: human RXFP1 (human, UniProt Q9HBX9 1-757)
T1 sequence (looked up): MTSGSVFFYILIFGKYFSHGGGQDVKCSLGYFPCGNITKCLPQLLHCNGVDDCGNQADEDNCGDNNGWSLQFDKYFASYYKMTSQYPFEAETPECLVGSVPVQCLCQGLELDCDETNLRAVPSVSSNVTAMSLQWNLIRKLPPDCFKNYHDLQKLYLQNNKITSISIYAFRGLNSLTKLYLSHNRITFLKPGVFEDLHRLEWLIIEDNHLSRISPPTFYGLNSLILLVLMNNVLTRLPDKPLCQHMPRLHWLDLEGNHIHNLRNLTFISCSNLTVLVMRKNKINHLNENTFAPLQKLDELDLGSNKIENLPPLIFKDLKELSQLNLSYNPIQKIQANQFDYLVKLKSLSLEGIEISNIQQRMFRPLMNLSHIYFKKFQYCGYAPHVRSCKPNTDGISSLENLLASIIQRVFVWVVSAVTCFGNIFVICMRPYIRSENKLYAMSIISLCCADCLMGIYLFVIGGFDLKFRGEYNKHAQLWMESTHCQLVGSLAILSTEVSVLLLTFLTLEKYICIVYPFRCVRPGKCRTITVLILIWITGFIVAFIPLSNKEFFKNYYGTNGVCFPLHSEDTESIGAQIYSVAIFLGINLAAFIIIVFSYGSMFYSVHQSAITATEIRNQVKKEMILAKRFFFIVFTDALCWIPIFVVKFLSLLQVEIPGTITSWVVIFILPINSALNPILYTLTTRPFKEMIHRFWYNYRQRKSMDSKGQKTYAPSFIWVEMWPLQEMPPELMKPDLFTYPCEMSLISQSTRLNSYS

B1: Relaxin peptide analogue of SEQ ID NO: 47 (peptide)
peptide: Ac-LEGREKVRAKI[Aib][Aib]EGK([TTDS-TTDS-TTDS-γGlu-γGlu-γGlu-Palmitoyl])STFS[αMeK]RAK(Ac)-NH2
B2: Relaxin peptide analogue of SEQ ID NO: 56 (peptide)
peptide: Ac-LEGREKVRA[Cit]I[Aib][Aib]EGK([TTDS-TTDS-TTDS-γGlu-γGlu-γGlu-Stearoyl])STFS[αMeK]RAK(Ac)-NH2
B3: Relaxin peptide analogue of SEQ ID NO: 54 (peptide)
peptide: Ac-LEGREKVRAK(Ac)I[Aib][Aib]EGK([TTDS-TTDS-γGlu-γGlu-γGlu-γGlu-Stearoyl])STWS[Aib]RKK(Ac)-NH2
B4: Relaxin peptide analogue of SEQ ID NO: 57 (peptide)
peptide: Ac-LEGREKVRAK(Ac)I[Aib][Aib]EGK([TTDS-TTDS-TTDS-γGlu-γGlu-γGlu-Palmitoyl])STWS[hLys]RAK(Ac)-NH2
B5: Relaxin peptide analogue of SEQ ID NO: 44 (peptide)
peptide: Ac-LEGREKVRAK(Ac)I[Aib][Aib]EGK([TTDS-TTDS-TTDS-γGlu-γGlu-γGlu-Palmitoyl])STW[dS]KRAK(Ac)-NH2
B6: Relaxin peptide analogue of SEQ ID NO: 45 (peptide)
peptide: Ac-LEGREKVRAK(Ac)I[Aib][Aib]EGK([AEEA-AEEA-AEEA-AEEA-AEEA-γGlu-γGlu-γGlu-Palmitoyl])STFS[αMeK]RAK(Ac)-NH2
SMILES: CCCCCCCCCCCCCCCC(=O)N[C@@H](CCC(=O)N[C@@H](CCC(=O)N[C@@H](CCC(=O)NCCOCCOCC(=O)NCCOCCOCC(=O)NCCOCCOCC(=O)NCCOCCOCC(=O)NCCOCCOCC(=O)NCCCC[C@H](NC(=O)CNC(=O)[C@H](CCC(=O)O)NC(=O)C(C)(C)NC(=O)C(C)(C)NC(=O)[C@@H](NC(=O)[C@H](CCCCNC(C)=O)NC(=O)[C@H](C)NC(=O)[C@H](CCCNC(=N)N)NC(=O)[C@@H](NC(=O)[C@H](CCCCN)NC(=O)[C@H](CCC(=O)O)NC(=O)[C@H](CCCNC(=N)N)NC(=O)CNC(=O)[C@H](CCC(=O)O)NC(=O)[C@H](CC(C)C)NC(C)=O)C(C)C)[C@@H](C)CC)C(=O)N[C@@H](CO)C(=O)N[C@H](C(=O)N[C@@H](Cc1ccccc1)C(=O)N[C@@H](CO)C(=O)N[C@@](C)(CCCCN)C(=O)N[C@@H](CCCNC(=N)N)C(=O)N[C@@H](C)C(=O)N[C@@H](CCCCNC(C)=O)C(N)=O)[C@@H](C)O)C(=O)O)C(=O)O)C(=O)O
B7: Relaxin peptide analogue of SEQ ID NO: 49 (peptide)
peptide: Ac-LEGREKVRAK(Ac)I[Aib][Aib]EGK([TTDS-TTDS-TTDS-γGlu-γGlu-γGlu-Palmitoyl])STFS[αMeK]RAK-NH2
B8: Relaxin peptide analogue of SEQ ID NO: 51 (peptide)
peptide: Ac-LEGREKVRAK(Ac)I[Aib][Aib]EGK([TTDS-TTDS-TTDS-γGlu-γGlu-γGlu-γGlu-Stearoyl])STWS[Aib]RKK(Ac)-NH2
B9: Relaxin peptide analogue of SEQ ID NO: 48 (peptide)
peptide: Ac-LEGREKVRAQI[Aib][Aib]EGK([TTDS-TTDS-TTDS-γGlu-γGlu-γGlu-Palmitoyl])STFS[αMeK]RAK(Ac)-NH2

Target: T1, human RXFP1
Assay: cell-based or functional assay

| Binder | EC50 (nM), OVCAR 5 cells (cAMP) | EMax, OVCAR 5 cells (cAMP) |
| --- | --- | --- |
| B1 | 0.64 nM | 95% |
| B2 | 0.15 nM | 91% |
| B3 | 0.16 nM | 96% |
| B4 | 0.44 nM | 98% |
| B5 | 2.2 nM | 97% |
| B6 | 0.45 nM | 96% |
| B7 | 0.19 nM | 97% |
| B8 | 0.1 nM | 98% |
| B9 | 0.45 nM | 96% |
